Biological target: Rae1(31-368);Nup98(157-213) GLEBS (human;human, UniProt P78406;P52948 31-368;157-213, |)
Assay: EMSA
Conditions: protein: recombinant;recombinant; tags: untagged;N-terminal His tag removed by TEV; copies: 1;1; label: 5' FAM; single strand

Rae1(31-368);Nup98(157-213) GLEBS, sequence (P78406 31-368, chain 1 of 2): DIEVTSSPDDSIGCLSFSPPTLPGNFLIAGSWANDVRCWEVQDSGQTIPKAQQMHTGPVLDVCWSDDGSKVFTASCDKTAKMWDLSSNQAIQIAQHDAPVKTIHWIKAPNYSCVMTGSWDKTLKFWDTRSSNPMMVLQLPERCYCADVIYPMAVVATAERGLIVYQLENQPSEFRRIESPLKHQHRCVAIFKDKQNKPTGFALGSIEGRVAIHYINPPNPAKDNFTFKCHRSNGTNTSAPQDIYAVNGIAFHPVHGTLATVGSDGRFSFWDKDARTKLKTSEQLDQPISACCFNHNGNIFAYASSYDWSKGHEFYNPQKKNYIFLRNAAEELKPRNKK
Rae1(31-368);Nup98(157-213) GLEBS, sequence (P52948 157-213, chain 2 of 2): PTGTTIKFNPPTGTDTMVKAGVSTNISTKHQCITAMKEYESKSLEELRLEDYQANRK

B1: 10-mer poly(U) ssRNA (ssRNA)
RNA: UUUUUUUUUU
binding result: binds
